ChEMBL document CHEMBL1124124, “Synthesis and interaction with uridine phosphorylase of 5'-deoxy-4',5-difluorouridine, a new prodrug of 5-fluorouracil” (J Med Chem, 1988)

Assays:
[1] = target: Uridine phosphorylase 1 (Mus musculus) (UniProt P52624); experiment: Kinetic constant for interaction with Urd phosphorylase from Lewis lung carcinoma; conditions: mouse
[2] = as above

Uridine phosphorylase 1 (Mus musculus), sequence (P52624 whole entry, looked up): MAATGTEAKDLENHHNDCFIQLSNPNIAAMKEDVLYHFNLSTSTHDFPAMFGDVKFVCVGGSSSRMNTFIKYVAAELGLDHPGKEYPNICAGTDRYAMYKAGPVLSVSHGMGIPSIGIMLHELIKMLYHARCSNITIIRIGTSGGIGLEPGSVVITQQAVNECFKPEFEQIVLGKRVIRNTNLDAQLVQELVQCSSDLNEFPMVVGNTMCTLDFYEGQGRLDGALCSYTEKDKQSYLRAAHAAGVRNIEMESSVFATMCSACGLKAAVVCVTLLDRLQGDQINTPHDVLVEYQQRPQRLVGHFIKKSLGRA

B1: Uridine phosphorylase 1 (Homo sapiens), Q16831 (protein)
chain: MAATGANAEKAESHNDCPVRLLNPNIAKMKEDILYHFNLTTSRHNFPALFGDVKFVCVGGSPSRMKAFIRCVGAELGLDCPGRDYPNICAGTDRYAMYKVGPVLSVSHGMGIPSISIMLHELIKLLYYARCSNVTIIRIGTSGGIGLEPGTVVITEQAVDTCFKAEFEQIVLGKRVIRKTDLNKKLVQELLLCSAELSEFTTVVGNTMCTLDFYEGQGRLDGALCSYTEKDKQAYLEAAYAAGVRNIEMESSVFAAMCSACGLQAAVVCVTLLNRLEGDQISSPRNVLSEYQQRPQRLVSYFIKKKLSKA
Km [1]: 6 mM
Km [2]: 0.6 mM
